Test results reported in patent US20250312468A1, “ANTI-PROTAC ANTIBODIES AND COMPLEXES” (Merck Patent GmbH, priority 2021, published 2025).
Each block holds one substance with its values, some of them ahead of it.

How the values were obtained:
[1] = biological target: EGFR (UniProt P00533); assay: flow cytometry on MDAMB468 cells, Alexa Fluor 488 anti-human IgG Fab as secondary, on ice
[2] = biological target: EGFR (UniProt P00533); assay: cell-based or functional assay
[3] = biological target: CD33 (UniProt P20138); assay: flow cytometry on CD33-expressing MV411 cells, Alexa Fluor 488 anti-human IgG Fab as secondary, on ice

- EC50 (read off the curve) [1]: 0.6 nM
Substance: EGFR-binding antibody Cetuximab

- remaining nuclear BRD4 (immunofluorescence) in EGFR-expressing MDAMB468 cells at 4 nM [2]: 44.2%
Substance: C225-L328C-GNE987 (antibody)
- IC50 cell viability, MDAMB468 cells, three independent experiments [2]: 0.8 nM

- EC50 (read off the curve) [3]: 0.3 nM
Substance: CD33-binding antibody Gemtuzumab (IgG4-PG-SPLE)
